Experimental data from publication PMC7488360 (Acta Pharmaceutica Sinica. B, 2020).

Legend:
[1] = molecular target: HuR (human antigen R) (Homo sapiens, UniProt Q15717); test: SPR; format: binding
[2] = molecular target: HuR full-length (UniProt Q15717 1-326); test: EMSA
[3] = molecular target: HuR RRM12 (UniProt Q15717 18-186); test: EMSA
Sequence of HuR RRM12 (Q15717 18-186): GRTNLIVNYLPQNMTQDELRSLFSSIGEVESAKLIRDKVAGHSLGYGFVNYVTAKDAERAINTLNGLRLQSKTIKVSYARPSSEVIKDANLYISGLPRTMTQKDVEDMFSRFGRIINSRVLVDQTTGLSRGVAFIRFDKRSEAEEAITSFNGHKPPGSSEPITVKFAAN

Sequence of HuR (human antigen R) (Q15717 18-186): as above
Sequence of HuR full-length (Q15717 whole entry): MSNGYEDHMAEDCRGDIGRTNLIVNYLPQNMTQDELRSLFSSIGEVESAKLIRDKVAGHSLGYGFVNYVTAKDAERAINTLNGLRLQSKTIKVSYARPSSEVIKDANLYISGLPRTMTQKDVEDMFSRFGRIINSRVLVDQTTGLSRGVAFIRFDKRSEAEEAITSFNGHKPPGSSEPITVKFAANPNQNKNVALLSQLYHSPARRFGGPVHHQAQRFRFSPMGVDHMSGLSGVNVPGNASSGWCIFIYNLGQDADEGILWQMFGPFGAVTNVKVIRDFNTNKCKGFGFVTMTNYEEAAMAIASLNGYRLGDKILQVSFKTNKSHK

Kd [1] | Molecule | binding result [2] | binding result [3]
2.5 µM | CC1=NN(c2ccc(C)c(C)c2)C(=O)/C1=N\Nc1cccc(-c2cccc(C(=O)O)c2)c1O [eltrombopag] |  | 
 | AAUUCUACAUACUAAAUCUCUCUCCUUUUUUAAUUUUAAUAUUUG (ssRNA) [AREVegf-a] | binds | binds
